Experimental data: patent publication US20150274820A1 (ESBATECH AN ALCON BIOMEDICAL RESEARCH UNIT, published 2015)
Positions count from the first letter of the chain named. Several values for one entry are separate records, joined by “and”; a condition that tells them apart may be missing. Identical values can stand only once.

T1: recombinant human VEGF110 (human, UniProt P15692-4 27-136, limits assumed)
T1 construct: Made in house; also called hVEGF110
T1 sequence (looked up): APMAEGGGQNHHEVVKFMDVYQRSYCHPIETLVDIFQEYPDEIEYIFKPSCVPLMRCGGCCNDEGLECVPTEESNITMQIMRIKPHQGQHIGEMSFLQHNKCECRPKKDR

T2: recombinant human VEGF121 (human, UniProt P15692 27-147)
T2 construct: mature; Isoform VEGF121 of the entry; also called hVEGF121
T2 sequence (looked up): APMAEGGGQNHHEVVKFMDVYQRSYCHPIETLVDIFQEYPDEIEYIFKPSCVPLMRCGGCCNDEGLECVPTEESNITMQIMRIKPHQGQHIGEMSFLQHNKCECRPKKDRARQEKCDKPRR

T3: recombinant human PLGF (human, UniProt P49763-2 19-149, limits assumed)
T3 construct: Negative control; also called PIGF
T3 sequence (looked up): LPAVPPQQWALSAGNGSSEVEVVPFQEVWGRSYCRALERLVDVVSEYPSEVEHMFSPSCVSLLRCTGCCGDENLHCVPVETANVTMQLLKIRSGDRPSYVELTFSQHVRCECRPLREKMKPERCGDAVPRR

B1: 534-max (scFv)
scFv: EIVMTQSPSTLSASVGDRVIITCQASQSINIWLSWYQQKPGKAPKLLIYKESTLASGVPSRFSGSGSGTEFTLTISSLQPDDFATYYCQNNYDSGNNGFPFGQGTKLTVLGGGGGSGGGGSGGGGSGGGGSEVQLVESGGGLVQPGGSLRLSCTASGFSLSYYYMSWVRQAPGKGLEWVGIIGPGDYTDYASWAKGRFTISKDTSKNTVYLQMNSLRAEDTAVYYCARGDDNSGWGEDIWGQGTLVTVSS
notes: VL and VH tied by name; also called EP534max; Protein Nr; 793
B2: 509-maxII (scFv)
scFv: EIVMTQSPSTLSASVGDRVIITCQASQNIRIWLSWYQQKPGKAPKLLIYKASTLESGVPSRFSGSGSGTEFTLTISSLQPDDFATYYCQNNAHYSTNGGTFGQGTKLTVLGGGGGSGGGGSGGGGSGGGGSEVQLVESGGGLVQPGGSLRLSCTASGFSLSSYYMSWVRQAPGKGLEWVGILDYVGDTDYASWAKGRFTISKDASKNTVYLQMNSLRAEDTAVYYCARTDDSRGWGLNIWGQGTLVTVSS
notes: VH tied by name; also called Protein Nr
B3: 578minmax (scFv)
scFv: EIVMTQSPSTLSASVGDRVIITCQASEIIHSWLAWYQQKPGKAPKLLIYLASTLASGVPSRFSGSGSGAEFTLTISSLQPDDFATYYCQNVYLASTNGANFGQGTKLTVLGGGGGSGGGGSGGGGSGGGGSEVQLVESGGGLVQPGGSLRLSCTASGFSLTDYYYMTWVRQAPGKGLEWVGFIDPDDDPYYATWAKGRFTISRDTSKNTVYLQMNSLRAEDTAVYYCAGGDHNSGWGLDIWGQGTLVTVSS
notes: also called ESBA903; 903
B4: 578-min (scFv)
scFv: B3 scFv with T154A, G181S, T205N, V210L, G229K
notes: also called EP578 min; Protein Nr; 820
B5: 511-min (scFv)
scFv: EIVMTQSPSTLSASVGDRVIITCQASQSINIWCSWYQQKPGKAPKLLIYRASTLASGVPSRFSGSGSGAEFTLTISSLQPDDFATYYCQANYAYSAGYGAAFGQGTKLTVLGGGGGSGGGGSGGGGSGGGGSEVQLVESGGGLVQPGGSLRLSCAASGFSLNTYYMNWVRQAPGKGLEWVSIIAPDDTTYYASWAKSRFTISRDNSKNTLYLQMNSLRAEDTAVYYCAKSGDTTAWGADIWGQGTLVTVSS
notes: VL and VH tied by name; also called Protein Nr
B6: 511-max (scFv)
scFv: B5 scFv with C33L, A69T, A155T, A156V, S181G, F199S, N205T, L210V, K229R
notes: also called ESBA802

Legend:
[1] = target: T4, recombinant human VEGF165 (human, UniProt P15692 27-191); assay: Biacore SPR, VEGF immobilized, pH 7.4
T4 construct: mature; Isoform VEGF165 of the entry; also called hVEGF165; hVEGF
Description: (§1) In this example, the Biacore-binding ability of scFvs was tested and the binding affinity was measured using the exemplary surface plasmon resonance method with BIAcore™-T100. The VEGF proteins, tested for binding by these scFv candidates, in this example and later examples include purified Escherichia coli-expressed recombinant human VEGF₁₆₅ (PeproTech EC Ltd.), recombinant human VEGF₁₂₁ (PeproTech EC Ltd.), recombinant human VEGF₁₁₀ (ESBATech AG), recombinant murine VEGF₁₆₄ (PeproTech EC Ltd.), recombinant rat VEGF₁₆₄ (Biovision), recombinant rabbit VEGF₁₁₀ (ESBATech AG), and recombinant human PLGF (PeproTech EC Ltd.). For the surface plasmon resonance experiment, carboxymethylated dextran biosensor chips (CM4, GE Healthcare) were activated with N-ethyl-N′-(3-dimethylaminopropyl) carbodiimide hydrochloride and N-hydroxysuccinimide according to the supplier's instructions. Each of the 6 different VEGF forms, as exemplified above, was coupled to 1 of the 4 different flow cells on a CM4 sensor chip using a standard amine-coupling procedure. […] The 4th flow cell of each chip was treated similarly except no proteins were immobilized prior to blocking, and the flow cell was used as in-line reference. […] Dissociation of the anti-VEGF scFv from the VEGF on the CM4 chip was allowed to proceed for 10 min at 25° C. Sensorgrams were generated for each anti-VEGF scFv sample after in-line reference cell correction followed by buffer sample subtraction. The apparent dissociation rate constant (kd), the apparent association rate constant (kₐ) and the apparent dissociation equilibrium constant (KD) were calculated using one-to-one Langmuir binding model with BIAcore T100 evaluation Software version 1.1.
Target sequence in this assay (P15692 other isoform, or with tags, fused parts or gaps): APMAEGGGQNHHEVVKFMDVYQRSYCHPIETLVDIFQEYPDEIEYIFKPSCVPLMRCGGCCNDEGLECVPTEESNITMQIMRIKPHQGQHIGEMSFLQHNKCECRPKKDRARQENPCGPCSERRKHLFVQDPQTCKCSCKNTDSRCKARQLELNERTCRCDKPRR

[2] = target: T4, recombinant human VEGF165; assay: Biacore SPR, VEGF immobilized, pH 5
Description: as §1
Target sequence in this assay (P15692 other isoform, or with tags, fused parts or gaps): as above

[3] = target: T4, recombinant human VEGF165; assay: cell-based or functional assay
[4] = target: T4, recombinant human VEGF165; assay: cell-based or functional assay; remark: listed apart in the source
Target sequence in this assay (P15692 other isoform, or with tags, fused parts or gaps): as above

[5] = target: T4, recombinant human VEGF165; assay: Biacore SPR, VEGF immobilized, pH 5; remark: listed apart in the source
Description: as §1
Target sequence in this assay (P15692 other isoform, or with tags, fused parts or gaps): as above

[6] = target: T1, recombinant human VEGF110; assay: Biacore SPR, VEGF immobilized, pH 5
Description: as §1

[7] = target: T2, recombinant human VEGF121; assay: Biacore SPR, VEGF immobilized, pH 5
Description: as §1

recombinant human PLGF = target: T3, recombinant human PLGF; assay: Biacore SPR, PlGF immobilized, pH 5
Description: as §1

[8] = target: recombinant rat VEGF164 (rat) (UniProt P16612); assay: Biacore SPR, VEGF immobilized, pH 5
[9] = target: recombinant murine VEGF164 (mouse) (UniProt Q00731); assay: Biacore SPR, VEGF immobilized, pH 5
[10] = target: T4, recombinant human VEGF165; assay: VEGFR1/Fc competition ELISA on coated hVEGF165; ratio to Lucentis
Description: After 30-60 min of incubation at room temperature, the mixtures were transferred to the human VEGF₁₆₅ immobilized plate and incubated for 90 min. […] Optical density at 450 nm (OD 450 nm) was measured using a Sunrise microplate reader (Tecan). Data were analyzed as above, and EC₅₀ values were calculated from the dose-response curves of the scFvs.
Target sequence in this assay (P15692 other isoform, or with tags, fused parts or gaps): as above

[11] = target: T4, recombinant human VEGF165; assay: cell-based or functional assay; remark: listed apart in the source
[12] = target: recombinant rat VEGF164 (rat) (UniProt P16612); assay: Biacore SPR, pH 7.4 (data not shown)
[13] = target: recombinant murine VEGF164 (mouse) (UniProt Q00731); assay: Biacore SPR, pH 7.4 (data not shown)
[14] = target: T4, recombinant human VEGF165; assay: Biacore SPR, VEGF immobilized, pH 5; remark: listed apart in the source
Description: as §1, with “1.1. […]” for “1.1.”
Target sequence in this assay (P15692 other isoform, or with tags, fused parts or gaps): as above

[15] = target: recombinant murine VEGF164 (mouse) (UniProt Q00731); assay: Biacore SPR, pH 5 (text; Table 8b prints 5.67E-10)
[16] = target: recombinant rat VEGF164 (rat) (UniProt P16612); assay: cell-based or functional assay
[17] = target: recombinant murine VEGF164 (mouse) (UniProt Q00731); assay: cell-based or functional assay
[18] = target: recombinant rat VEGF164 (rat) (UniProt P16612); assay: Biacore SPR; ratio to hVEGF165
[19] = target: recombinant murine VEGF164 (mouse) (UniProt Q00731); assay: Biacore SPR; ratio to hVEGF165

Row | Binder | koff [1] [s⁻¹] | kon [1] [M⁻¹ s⁻¹] | koff [2] [s⁻¹] | kon [2] [M⁻¹ s⁻¹] | Rel. activity in HUVEC assay (EC50Luc[nM]/EC50test[nM]) [4] | koff [5] [s⁻¹] | kon [5] [M⁻¹ s⁻¹] | koff [6] [s⁻¹] | kon [6] [M⁻¹ s⁻¹] | koff [7] [s⁻¹] | kon [7] [M⁻¹ s⁻¹] | binding result (recombinant human PLGF) | koff [8] [s⁻¹] | kon [8] [M⁻¹ s⁻¹] | koff [9] [s⁻¹] | kon [9] [M⁻¹ s⁻¹] | Rel. activity hVEGR1 comp. ELISA (EC50Luc[nM]/EC50test[nM]) [10] | Rel. activity in HUVEC assay (EC50Luc[nM]/EC50test[nM]) hVEGF [11] | koff [14] [s⁻¹] | kon [14] [M⁻¹ s⁻¹] | further results
1 | B1 | 0.00262 | 1.06e+06 | 0.0173 | 1.88e+06 | 0.0014 |  |  |  |  |  |  |  |  |  |  |  |  |  |  |  | EC50 in HUVEC assay (FIG. 8c) [3]: 63.5 nM
2 | B2 | 0.0198 | 7.59e+06 | 0.00282 | 838000 | 0.0009 | 0.00282 | 838000 | 0.00133 | 901000 | 0.00123 | 897000 | no binding | 0.0266 | 1.47e+07 | 0.0601 | 3.47e+07 | 0.09 |  |  |  | 
3 | B3 |  |  |  |  |  |  |  |  |  |  |  |  | 0.000641 | 858000 | 0.000657 | 1.14e+06 |  | 1.6 and 1.4 | 0.000504 | 806000 | Kd [12]: 0.0219 nM; Kd [13]: 0.0273 nM; Kd [14]: 0.625 nM; Kd [15]: 0.576 nM; Kd [8]: 0.748 nM; Kd [9]: 0.567 nM; EC50, HUVEC proliferation induced by hVEGF165 [3]: 0.0552 nM; potency in HUVEC assay relative to Lucentis [3]: ~1.6 fold; EC50, HUVEC proliferation induced by rat VEGF164 [16]: 0.0697 nM; EC50, HUVEC proliferation induced by mouse VEGF164 [17]: 0.0631 nM; relative value KdhVEGF165/KdmVEGF164 (rat block) [18]: 0.8; relative value kdhVEGF165/kdmVEGF164 (rat block) [18]: 0.8; relative value KdhVEGF165/KdmVEGF164 [19]: 1.1; relative value kdhVEGF165/kdmVEGF164 [19]: 0.8
4 | B4 | 0.000202 | 1.11e+06 | 0.0103 | 1.14e+06 | 0.1 | 0.0103 | 1.14e+06 | 0.0104 | 915000 | 0.0088 | 961000 | no binding | 0.0182 | 1.7e+06 | 0.0151 | 1.4e+06 | 4.8 | 0.1 | 0.0103 | 1.14e+06 | EC50 in HUVEC assay (FIG. 8d) [3]: 1.53 nM
5 | B5 | 0.000885 | 675000 | 0.00128 | 505000 | 0.0011 | 0.00128 | 505000 | 0.000898 | 619000 | 0.000963 | 778000 | no binding | 0.00112 | 550000 | 0.00103 | 625000 | 0.7 | 0.0011 | 0.00128 | 505000 | 
6 | B6 | 6.85e-05 | 800000 | 4.4e-05 | 659000 | 0.0179 | 4.4e-05 | 659000 | 7.96e-05 | 405000 | 9.97e-05 | 467000 | no binding | 6.63e-05 | 626000 | 4.61e-05 | 753000 | 8 | 0.0179 | 4.4e-05 | 659000 | 
